Substitutions are numbered along the chain they refer to. Names may count otherwise.

This note sets out measurements from paper PMC6289497 (ACS Omega, 2018).

The target of data set [1] is human metapneumovirus (HMPV) strain CAN97-83 M2-1 protein (human metapneumovirus strain CAN97-83). Kind of data set: Gdm.HCl-induced equilibrium denaturation.
Data set [2] concerns the molecule itself. Kind of data set: SEC.

By stoichiometry N is commonly meant a count of units in the complex or per binding partner. “human metapneumovirus (HMPV) strain CAN97-83 M2-1 protein (natural protein)” came in with a stoichiometry N in data set [1] of 4.

B1: H25A RSV-M2-1 (natural protein)
chain: MSRRNPCKFEIRGHCLNGKRCHFSANYFEWPPHALLVRQNFMLNRILKSMDKSIDTLSEISGAAELDRTEEYALGVVGVLESYIGSINNITKQSACVAMSKLLTELNSDDIKKLRDNEELNSPKIRVYNTVISYIESNRKNNKQTIHLLKRLPADVLKKTIKNTLDIHKSITINNPKESTVSDTNDHAKNNDTT
As for B1, the binding result in data set [2] was “binds”.

B2: H25C RSV-M2-1 (natural protein)
chain: B1 chain with A25C
For the molecule B2, in data set [2], the binding result is reported as “binds”.
